Experimental data taken from article PMC10556615 (Proceedings of the National Academy of Sciences of the …, 2023).

Molecular target: T1, Arabidopsis TIR1 (Transport Inhibitor Response 1), coexpressed with AtASK1 (Arabidopsis, UniProt Q570C0 1-594; Q39255 1-160)
T1 construct: a TEV site stands between the tags and TIR1; ASK1 (AtASK1), Arabidopsis, coexpressed with TIR1; a TEV site stands between the tag and ASK1; that the sample is the TIR1-ASK1 complex is surmised from the coexpression; Cleavage with TEV is not mentioned; also called AtTIR1; His10-eGFP-FLAG-(TEV)-AtTIR1
T1 sequence (looked up) 1: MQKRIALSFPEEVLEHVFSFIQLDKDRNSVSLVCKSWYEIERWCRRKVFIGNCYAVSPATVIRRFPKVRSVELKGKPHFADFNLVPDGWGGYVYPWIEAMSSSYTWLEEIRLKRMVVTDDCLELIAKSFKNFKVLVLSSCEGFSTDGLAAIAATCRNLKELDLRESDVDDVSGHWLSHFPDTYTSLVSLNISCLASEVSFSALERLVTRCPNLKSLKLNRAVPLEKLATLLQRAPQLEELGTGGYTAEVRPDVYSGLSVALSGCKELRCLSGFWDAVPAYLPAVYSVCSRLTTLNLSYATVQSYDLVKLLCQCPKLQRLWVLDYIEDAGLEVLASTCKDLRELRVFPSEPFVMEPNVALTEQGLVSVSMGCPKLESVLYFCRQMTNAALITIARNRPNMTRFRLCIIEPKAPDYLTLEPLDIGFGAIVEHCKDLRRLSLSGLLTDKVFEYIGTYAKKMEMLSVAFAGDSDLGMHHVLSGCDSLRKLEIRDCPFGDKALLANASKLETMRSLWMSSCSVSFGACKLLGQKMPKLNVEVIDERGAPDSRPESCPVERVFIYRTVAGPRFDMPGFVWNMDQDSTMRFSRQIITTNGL
T1 sequence (looked up) 2: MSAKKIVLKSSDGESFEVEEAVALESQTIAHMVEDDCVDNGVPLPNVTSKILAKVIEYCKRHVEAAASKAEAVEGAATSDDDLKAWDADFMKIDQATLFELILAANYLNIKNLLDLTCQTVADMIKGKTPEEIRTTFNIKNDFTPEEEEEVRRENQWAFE
Test: NMR titration; 1H-15N HSQC of 15N-labeled AXR3 DI/DII with unlabeled TIR1 added, 1:3 ratio, 5 to 10 µM TIR1, 4 °C, 20 mM sodium phosphate pH 6.0, 150 mM NaCl, 3 mM EDTA, 10 mM DTT; loss of HN cross peak intensity; no auxin
Conditions: both partners purified

B1: AXR3 DI/DII (N-terminal half of the Aux/IAA protein IAA17/AXR3, residues 1 to 101) (domain or fragment, UniProt P93830 1-101, looked up)
chain: MMGSVELNLRETELCLGLPGGDTVAPVTGNKRGFSETVDLKLNLNNEPANKEGSTTHDVVTFDSKEKSACPKDPAKPPAKAQVVGWPPVRSYRKNVMVSCQ
modifications: 15N isotopically labeled
notes: AXR3 (IAA17), Aux/IAA protein, domains I and II (DI/DII), residues 1 to 101, without the C-terminal PB1 domain; also called AXR3_(1-101); N-terminal half of AXR3; source: E. coli Rosetta DE3, minimal media with 15N ammonium chloride, purified (Co-NTA)
B1: binds.
